We go through two molecules from patent US20240207432A1 (BIOSION, published 2024).

The target of assay [1] is T1, human TROP2-his protein (human, UniProt P09758 27-274).
T1 construct: Biotin-labelled in the ELISAs, unlabelled analyte in Biacore; also called biotin-labeled human TROP2-his protein; biotin human Trop2-his
T1 sequence: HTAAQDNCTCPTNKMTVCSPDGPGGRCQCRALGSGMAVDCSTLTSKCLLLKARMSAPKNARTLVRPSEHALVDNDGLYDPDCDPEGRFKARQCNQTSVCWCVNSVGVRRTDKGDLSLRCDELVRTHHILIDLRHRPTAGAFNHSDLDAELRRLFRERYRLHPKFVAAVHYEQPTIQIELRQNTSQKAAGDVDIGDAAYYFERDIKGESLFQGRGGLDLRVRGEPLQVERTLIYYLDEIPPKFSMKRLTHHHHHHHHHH
Briefly: competitive ELISA: BM1 coated at 1 ug/mL, antibody premixed with biotin human TROP2-his; blocked: binding of TROP2-his to coated BM1. On the procedure:
The mouse anti-TROP2 antibodies were tested for epitope binding in a competitive ELISA assay. […] ELISA plates were washed once with wash buffer (PBS+0.05% v/v Tween-20, PBST) and then blocked with 200 μl blocking buffer (5% w/v non-fatty milk in PBST) for 2 hours at 37° C. While blocking, the anti-TROP2 antibodies or controls were diluted with biotin labeled human TROP2-his protein (SEQ ID NO: 67, 34 ng/mL in 2.5% wA non-fatty milk in PBST), starting at 80 nM with a 5-fold serial dilution, and incubated at room temperature for 40 minutes. After plate washing for 4 times, the antibody/TROP2-his protein mixtures were added to the antibody coated plates, 100 μl per well. After incubation at 37° C. for 40 minutes, plates were washed 4 times again using wash buffer. Then the plates were added and incubated with 100 μl Peroxidase Streptavidin (1:10000 dilution in PBST buffer. Jackson Immunoresearch, Cat #016-030-084) for 40 minutes at 37° C. Plates were washed again using wash buffer. Finally, TMB was added and the reaction was stopped using 1M H₂SO₄. The absorbance of each well was read on a microplate reader using dual wavelength mode with 450 nm for TMB and 630 nm as the reference wavelength, and the OD (450-630) values were plotted against antibody concentration. Data was analyzed using Graphpad Prism software and IC₅₀ values were reported.

Assay [2] deals with T1, human TROP2-his protein. Briefly: capture ELISA, antibody captured on anti-mouse IgG Fc coat, biotin human TROP2-his in solution, OD(450-630). On the procedure:
Plates were washed once with wash buffer (PBS+0.05% v/v Tween-20, PBST) and then blocked with 200 μl/well blocking buffer (5% w/v non-fatty milk in PBST) for 2 hours at 37° C. […] Plates containing captured anti-TROP2 antibodies were incubated with biotin-labeled human TROP2-his protein (prepared in house, SEQ ID NO: 67, 56.7 ng/mL in 2.5% w/v non-fatty milk in PBST, 100 μl/well) for 40 minutes at 37° C., washed 4 times, and incubated with streptavidin conjugated HRP (1:10000 dilution in PBST, Jackson Immuno Research, Cat #016-030-084, 100 μl/well) for 40 minutes at 37° C. After a final wash, plates were incubated with 100 μl/well ELISA substrate TMB (Innoreagents, Cat #TMB-S-002) at room temperature. The reaction was stopped in 3-10 minutes at room temperature with 50 μl/well 1M H₂SO₄, and the absorbance of each well was read on a microplate reader using dual wavelength mode with 450 nm for TMB and 630 nm as the reference wavelength. The OD (450-630) values were plotted against antibody concentration. Data was analyzed using Graphpad Prism software and EC₅₀ values were reported.
On the technique in general: An ELISA detects its analyte on a solid surface through an enzyme-linked reagent.

Assay [3] has as its target T1, human TROP2-his protein. Kind of assay: SPR Biacore T200, mAb captured on anti-mouse IgG CM5 chip, TROP2-his analyte. The method, then: (§1) Un-reacted moieties on the chip (biosensor) surface were blocked with ethanolamine. […] The antigen-antibody association kinetics was followed for 2 minutes and the dissociation kinetics was followed for 10 minutes. The association and dissociation curves were fit to a 1:1 Langmuir binding model using BIAcore evaluation software.
(Surface plasmon resonance follows binding to a sensor surface in real time, without labels.)

For assay [4], the target named is T2, cynomolgus TROP2-his protein (cynomolgus monkey, UniProt P09758 27-272 (human entry), limits assumed).
T2 construct: no cleavage site is stated; also called Cynomolgus monkey TROP2-his protein; monkey TROP2
T2 chain: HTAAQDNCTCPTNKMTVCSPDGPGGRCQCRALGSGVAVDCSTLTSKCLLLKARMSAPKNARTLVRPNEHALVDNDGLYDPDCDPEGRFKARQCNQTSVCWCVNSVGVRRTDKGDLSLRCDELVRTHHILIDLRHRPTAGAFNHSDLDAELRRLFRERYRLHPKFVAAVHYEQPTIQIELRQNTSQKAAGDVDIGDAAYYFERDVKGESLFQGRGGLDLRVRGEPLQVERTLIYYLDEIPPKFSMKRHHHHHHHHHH
The assay is described as above. The method, then:
as §1

In assay [5] the target is T2, cynomolgus TROP2-his protein. Briefly: indirect ELISA, cynomolgus TROP2-his coated at 2 ug/mL, OD(450-630). On the procedure:
The anti-TROP2 antibodies of the disclosure were tested for their cross-reaction with cynomolgus TROP2 proteins. Briefly, 96-well micro plates were coated with 100 μl 2 μg/ml cynomolgus TROP2-his proteins (prepared in-house with SEQ ID NO: 70) in carbonate/bicarbonate buffer (pH 9.6) overnight at 4° C. ELISA plates were washed once with wash buffer (PBS+0.05% v/v Tween-20, PBST) and then blocked with 200 μl/well blocking buffer (5% w/v non-fatty milk in PBST) for 2 hours at 37° C. […] After a final wash, plates were incubated with 100 μl/well TMB (Innoreagents) at room temperature. The reaction was stopped 3-10 minutes later at room temperature with 50 μl/well 1M H₂SO₄, and the absorbance of each well was read on a microplate reader using dual wavelength mode with 450 nm for TMB and 630 nm as the reference wavelength. The OD (450-630) values were plotted against antibody concentration. Data was analyzed using Graphpad Prism software and EC₅₀ values were reported.

In assay [6] the target is T1, human TROP2-his protein. Kind of assay: epitope grouping ELISA, 15 ug/ml antibody premixed with biotin human TROP2-his; competitor: coated BM2. On the procedure: (§2) Firstly, capture ELISA was performed to determine the concentration of biotin-labeled human Trop2 proteins appropriate for the epitope binning test. […] The plates were washed for 4 times, added with 100 μl/well of serially diluted biotin human Trop2-his proteins (SEQ ID NO: 67) in PBST with 2.5% non-fatty milk (starting from 1.3 μg/ml with a 5-fold serial dilution), and incubated for 40 min at 37° C. Then the plates were washed for 4 times and added with 100 μl/vell of HRP-streptavidin (Jackson Immuno Research, Cat #016-030-084). The plates were incubated for another 40 min at 37° C. Then the plates were washed again, and 100 μl/well TMB was added for color development at RT for 15 min followed by quenching with 50 μl 1M H₂SO₄. The OD values at 450 nm were read.
(§3) With the appropriate concentration determined above, epitope grouping ELISA was performed. […] ELISA plates were washed once with wash buffer (PBS+0.05% v/v Tween-20, PBST) and then blocked with 200 μl blocking buffer (5% w/w non-fatty milk in PBST) for 2 hours at 37° C. […] The mixtures were incubated at room temperature for 40 minutes. After plate washing for 4 times, the antibody/biotin-TROP2-his protein mixtures were added to the antibody coated plates, 100 μl per well, and incubated for another 40 min at 37° C. Then 100 μl/well of HRP-streptavidin was added and incubated for 40 min. Then OD₄₅₀ values were determined and the cross-competition capability was calculated (cross-competition capability of antibody X (%)=(OD₄₅₀ of Antibody X-[…] of Blank)/(OD₄₅₀ of no mAb-OD₄₃₀ of Blank)*100%).

Assay [7] has as its target T1, human TROP2-his protein. Briefly: SPR Biacore, human TROP2-his analyte.
Assay [8] concerns the target T3, full length human TROP2 on 293F-TROP2 cells (human, UniProt P09758 27-323).
T3 construct: also called 293F-TROP2 cells (clone ID #3A8); cell surface TROP2
T3 sequence: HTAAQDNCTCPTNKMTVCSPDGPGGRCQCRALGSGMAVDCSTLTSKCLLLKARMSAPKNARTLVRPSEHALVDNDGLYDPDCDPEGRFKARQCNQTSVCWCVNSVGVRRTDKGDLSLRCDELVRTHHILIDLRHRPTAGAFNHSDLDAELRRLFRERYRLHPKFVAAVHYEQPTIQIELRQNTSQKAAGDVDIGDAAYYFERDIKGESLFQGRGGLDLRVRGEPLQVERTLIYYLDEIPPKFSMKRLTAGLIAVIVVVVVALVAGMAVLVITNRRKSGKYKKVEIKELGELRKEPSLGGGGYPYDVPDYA
Kind of assay: FACS on 293F-TROP2 cells, MFI.

In assay [9] the target is T1, human TROP2-his protein. Kind of assay: epitope grouping ELISA, 15 ug/ml antibody premixed with biotin human TROP2-his; competitor: coated huA1E4F7D4-V16. The method, then: as §2, §3
Assay [10] has as its target T1, human TROP2-his protein. Briefly: epitope grouping ELISA, 15 ug/ml antibody premixed with biotin human TROP2-his; competitor: coated BM1. On the procedure:
as §2, §3

B1: mouse antibody B1G1F5A3 (antibody, V domains shown)
VH: EVQLQQSGPELVKPGTSVKMSCKASGYSFADYSMNWVRQSHGNSLEWIGYIYPNNGASGFNQKFKGKATLTVDKSSSTAYMELHSLTSEDSAVYYCAREQDNSGYCFDYWGQGTSLTVSS
VL: DVVMTQTPLSLAVRLGDQASISCRSSLNLVHSNGNTFLHWYLQRPGQSPKLLIYKVSNRFSGVSDRFSGSGSGTDFTLKISRVEAEDLGVYFCSQTTHVPTFGGGTKLEIK
notes: Mouse monoclonal IgG purified from hybridoma supernatant
As to B1, the IC50 (as a rule, the concentration that gives 50% inhibition) in the assay with human TROP2-his protein [1] turned out to be 0.516 nM. In the assay with human TROP2-his protein [2], a half-maximal response (EC50) required 0.335 nM. Besides, in the assay with human TROP2-his protein [3], binding was characterised by a dissociation constant (Kd) of 0.416 nM; the dissociation rate constant (koff) (as a rule, a measure of how fast the partners let go of each other) was 5.58e-05 s⁻¹; the kon (as a rule, the rate constant with which the complex forms) turned out to be 134000 M⁻¹ s⁻¹. Further, in [4], the Kd (in general, the equilibrium constant for the complex coming apart) is 0.568 nM; the koff amounted to 8.86e-05 s⁻¹; the association rate constant (kon) is 156000 M⁻¹ s⁻¹. In assay [5], the midpoint of the response, the EC50, lay at 0.863 nM.

B2: BM2 (in house made analog of Datopotamab) (antibody, human IgG1, kappa, V domains shown)
VH: QVQLVQSGAEVKKPGASVKVSCKASGYTFTTAGMQWVRQAPGQGLEWMGWINTHSGVPKYAEDFKGRVTISADTSTSTAYLQLSSLKSEDTAVYYCARSGFGSSYWYFDVWGQGTLVTVSS
VL: DIQMTQSPSSLSASVGDRVTITCKASQDVSTAVAWYQQKPGKAPKLLIYSASYRYTGVPSRFSGSGSGTDFTLTISSLQPEDFAVYYCQQHYITPLTFGQGTKLEIKR
For B2, the OD450 with human TROP2-his protein [6] was determined as 0.354 OD450. In the assay with human TROP2-his protein [7], this molecule gave a Kd of 28.7 nM, a koff of 0.00364 s⁻¹ and an on-rate constant (kon) of 127000 M⁻¹ s⁻¹. Moreover, the concentration giving a half-maximal response (EC50) (as a rule, the concentration needed to bring the measured effect to its halfway point) in assay [8] came to 0.908 nM. This molecule also showed an OD450 in the assay with human TROP2-his protein [9] of 1.63 OD450. In the assay with human TROP2-his protein [10], this molecule showed an OD450 of 0.519 OD450.
